Data on 3 molecules can be found in patent US20050266008A1 (Bristol-Myers Squibb, published 2005).

Assay [1] deals with T1, IRTA5 protein as naturally expressed on human peripheral blood B lymphocytes and B cell tumor lines (human, UniProt Q96LA6 17-429).
T1 construct: Endogenous protein on untransfected human cells; also called IRTA-5 on CD19+ B cells, Daudi, Ramos, SU-DHL-4
T1 sequence: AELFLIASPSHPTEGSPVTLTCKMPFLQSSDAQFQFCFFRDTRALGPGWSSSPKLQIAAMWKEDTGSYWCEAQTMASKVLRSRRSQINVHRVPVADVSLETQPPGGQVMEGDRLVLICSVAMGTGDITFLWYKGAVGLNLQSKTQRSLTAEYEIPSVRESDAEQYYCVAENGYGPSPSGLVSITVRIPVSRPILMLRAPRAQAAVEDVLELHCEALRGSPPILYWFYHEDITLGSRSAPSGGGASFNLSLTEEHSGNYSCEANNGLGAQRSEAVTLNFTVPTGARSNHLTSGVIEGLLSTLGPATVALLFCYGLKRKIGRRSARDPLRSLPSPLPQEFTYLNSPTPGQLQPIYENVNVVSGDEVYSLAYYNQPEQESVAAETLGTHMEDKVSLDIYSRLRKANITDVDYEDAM
Briefly: two-colour flow cytometry on human PBMC: biotinylated antibody plus FITC-streptavidin (FL1) against PE anti-CD19 (FL2). The method, then: CD19 is a cell surface marker that can be used to distinguish peripheral blood B lymphocytes. Human peripheral blood mononuclear cells were incubated with biotinylated 2G5, biotinylated 7G8, or an isotype control biotinylated human Ab. Cells were washed and were incubated with FITC-labeled streptavidin together with a phycoerythrin-labeled anti-CD19 antibody. Cells were washed and analyzed by flow cytometry. The results are depicted in FIG. 10A. Lymphocytes were gated as black “dots” and monocytes were gated as grey “dots”. Wavelengths were selected to screen for FITC (FL 1) and phycoerythrin (FL2) signaling. […] 2G5+ or 7G8+ cells (ordinate) were also predominantly CD19+, localizing to the double-positive, upper right quadrant.
Background: Flow cytometry measures light scatter and fluorescence of single cells or particles in a stream.

The target of assay [2] is T2, IRTA2 expressed on transfected CHO cells (full-length transmembrane form with N-terminal epitope tag) (human, UniProt Q96RD9 16-977).
T2 construct: also called CHO line expressing IRTA2
T2 chain: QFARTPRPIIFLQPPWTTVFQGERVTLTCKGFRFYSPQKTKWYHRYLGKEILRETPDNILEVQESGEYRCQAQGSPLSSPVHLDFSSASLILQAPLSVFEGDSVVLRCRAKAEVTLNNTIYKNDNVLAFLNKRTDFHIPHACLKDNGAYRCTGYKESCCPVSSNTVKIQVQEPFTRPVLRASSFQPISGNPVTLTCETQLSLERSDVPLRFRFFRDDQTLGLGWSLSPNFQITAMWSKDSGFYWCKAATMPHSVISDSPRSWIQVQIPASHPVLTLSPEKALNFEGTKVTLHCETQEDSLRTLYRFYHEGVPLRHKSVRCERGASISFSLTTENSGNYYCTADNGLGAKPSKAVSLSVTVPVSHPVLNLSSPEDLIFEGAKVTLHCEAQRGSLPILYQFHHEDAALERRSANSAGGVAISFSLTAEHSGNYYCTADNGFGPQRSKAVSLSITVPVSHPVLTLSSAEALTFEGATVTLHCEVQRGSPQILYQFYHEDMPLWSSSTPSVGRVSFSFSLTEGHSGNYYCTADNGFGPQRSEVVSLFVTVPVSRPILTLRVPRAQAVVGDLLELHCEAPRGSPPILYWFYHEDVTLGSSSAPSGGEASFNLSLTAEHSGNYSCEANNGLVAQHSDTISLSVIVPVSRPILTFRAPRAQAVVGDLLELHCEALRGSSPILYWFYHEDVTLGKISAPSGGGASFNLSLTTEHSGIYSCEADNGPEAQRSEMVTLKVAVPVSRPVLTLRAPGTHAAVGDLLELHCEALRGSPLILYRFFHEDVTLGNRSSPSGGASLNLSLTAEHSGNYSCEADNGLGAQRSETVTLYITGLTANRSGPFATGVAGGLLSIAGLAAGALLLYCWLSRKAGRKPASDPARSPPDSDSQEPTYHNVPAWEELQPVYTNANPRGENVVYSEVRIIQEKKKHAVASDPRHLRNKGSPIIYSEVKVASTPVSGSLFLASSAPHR
Put plainly: flow cytometry on IRTA2-CHO cells, FITC-labeled anti-human IgG. The text has this:
Chinese hamster ovary (CHO) cell lines that express one of each of the five IRTA proteins at the cell surface were developed and used to determine the specificity of the IRTA5 HuMAbs by flow cytometry. CHO cells were transfected with expression plasmids containing full length cDNA encoding transmembrane forms of IRTA1, IRTA2, IRTA3, IRTA4, or IRTA5. In addition, the transfected proteins contained an epitope tag at the N-terminus for detection by an antibody specific for the epitope. Binding of the seven anti-IRTA5 HuMAbs was assessed by incubating the transfected cells with each of the IRTA5 Abs at a concentration of 10 μg/ml. The cells were washed and binding was detected with a FITC-labeled anti-human IgG Ab. A murine anti-epitope tag Ab, followed by labeled anti-murine IgG, was used as the positive control. Non-specific human and murine Abs were used as negative controls. The results are depicted in FIG. 9. The IRTA5 HuMAbs bound to the CHO line transfected with IRTA5 but not to CHO lines expressing IRTA1, 2, or 4 as measured by the mean fluorescent intensity (MFI) of staining.

Assay [3] has as its target T3, purified recombinant human IRTA5 fusion protein (human).
T3 construct: Amine-coupled to a CM5 chip in the Biacore kinetics; also called recombinant IRTA5 fusion protein
Briefly: Biacore SPR; IRTA5 fusion protein amine-coupled to CM5 chip, antibody flowed at 267 nM, 1:1 Langmuir fit. The method, then: Anti-IRTA5 antibodies were characterized for affinities and binding kinetics by Biacore analysis (Biacore AB, Uppsala, Sweden). Purified recombinant human IRTA5 fusion protein was covalently linked to a CM5 chip (carboxy methyl dextran coated chip) via primary amines, using standard amine coupling chemistry and kit provided by Biacore. Binding was measured by flowing the antibodies in HBS EP buffer (provided by BIAcore AB) at a concentration of 267 nM at a flow rate of 50 μl/min. The antigen-ssociation antibodies association kinetics was followed for 3 minutes and the dissociation kinetics was followed for 7 minutes. The association and dissociation curves were fit to a 1:1 Langmuir binding model using BlAevaluation software (Biacore AB). To minimize the effects of avidity in the estimation of the binding constants, only the initial segment of data coressponding to association and dissociation phases were used for fitting.
(In SPR one partner is held on a chip, and binding of the other changes the refractive index at the surface.)

For assay [4], the target named is T1, IRTA5 protein as naturally expressed on …. Put plainly: flow cytometry on Daudi and Ramos cells, PE anti-human secondary antibody. On the procedure:
The cell lines were incubated with each of the IRTA5 HuMAbs or a control human antibody, washed and detected by a phycoerythrin-labeled anti-human secondary antibody. […] The remaining 6 IRTA5 HuMAbs show a similar binding pattern (data not shown).

Where a chain is given by its changes, count along the chain named.

B1: human monoclonal antibody 7G8 (antibody, V domains shown)
VH: DVHLVQSGGGLVHPGGSLRLSCAGSGFTFSTYTMHWIRQAPGKDLEWVSAIGTGGGTDYADSVKGRFTISRDNAKNSLYLQMNSLRAEDMAVYYCAREVYWYFDLWGRGTLVTVSS
VL: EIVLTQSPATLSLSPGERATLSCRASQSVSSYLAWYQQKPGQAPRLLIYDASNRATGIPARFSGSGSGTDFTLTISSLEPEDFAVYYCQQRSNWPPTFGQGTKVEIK
notes: Fully human IgG with kappa light chain from an HCo7 HuMab Mouse hybridoma; also called IRTA5 HuMAb 7G8; biotinylated 7G8
The Kd is the free concentration of one partner at which half of the binding sites on the other are occupied at equilibrium, for simple one-to-one binding. What is called koff is a measure of how fast the partners let go of each other. In general, kon refers to the rate constant with which the complex forms. Regarding B1, the binding result in assay [1] is “binds”. For the same molecule, in assay [2], the binding result is recorded as “no binding (tested: 10 µg/ml)”. Besides, in assay [3], the Kd was found to be 16.8 nM, the off-rate constant (koff) was determined as 0.00121 s⁻¹ and the kon was 72000 M⁻¹ s⁻¹.

B2: human monoclonal antibody 2G5 (antibody, V domains shown)
VH: QVQLVESGGGVVQPGRSLRLSCAASGFTFSDYGMHWVRQAPGKGLEWVAVIWYDGNNKYYADSVKGRFTISRDNSKNTLYLQMNSLRAEDTAVYYCARDWGRAFDIWGQGTMVTVSS
VL: EIVLTQSPATLSLSPGERATLSCRASQSVSSYLAWYQQKPGQAPRLLIYDASNRATGIPARFSGSGSGTDFTLTISSLEPEDFALYYCQQLNNWPPYTFGQGTKLEIK
notes: Fully human IgG with kappa light chain from an HCo7 HuMab Mouse hybridoma; also called IRTA5 HuMAb 2G5; biotinylated 2G5
For the molecule B2, in assay [1], the binding result is on record as “binds”. Further, the binding result in assay [2] was “no binding (tested: 10 µg/ml)”. In assay [3], the dissociation constant Kd is 0.028 nM, the koff was found to be 4.3e-06 s⁻¹ and the on-rate constant (kon) turned out to be 152000 M⁻¹ s⁻¹.

B3: human monoclonal antibody 5A2 (antibody, V domains shown)
VH: QVQVVESGGGVVQPGRSLRLSCAASGFTFSNYGMHWVRQAPGKGLEWVAGIWYDGSNKYYADSVKGRFTISRDNSKNTLYLQMNSLRAEDTAVYYCARESPNFDYWGQGTLVTVSS
VL: B2 VL with L85V, L91R, Y97W, L105V
notes: Fully human IgG with kappa light chain from an HCo7 HuMab Mouse hybridoma
On to B3, for which the binding result in assay [4] is reported as “binds”. Moreover, the binding result in assay [2] is given as “no binding (tested: 10 µg/ml)”. In addition, in assay [3], the Kd came out at 0.035 nM, the koff worked out at 8.7e-06 s⁻¹ and the kon worked out at 252000 M⁻¹ s⁻¹.
